According to the supplement of paper PMC6757056:
± gives the standard deviation of the averaged measurements.

B1: library; a variant is named by its letters at N, in order (parent)
chain: GCUGUCACCGGUGCUUGGUACGUUAUAUUCAGCCGGUCUGAUGAGUCUNNNNNNAGACGAAACAGC

Key:
(6R,S)-folinic acid [1] = variants of: B1; assay: FACS-Seq fitted mean relative fluorescence mCherry/BFP without ligand (log10 relative fluorescence); HEK293T overexpressing SLC46A1; higher = higher reporter protein expression; conditions: without (6R,S)-folinic acid; ligand present: no
Protocol: (§1)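 Hammerhead (sTRSV) ribozyme switch libraries with a ligand aptamer grafted on stem I and a randomized N4-6 loop II, cloned into the 3' UTR of mCherry and transiently transfected into HEK293T cells; RNA-Seq 72 h post transfection with ligand added 1 h before transfection; RNA read count / plasmid DNA read count normalized to the non-cleaving sTRSVctl (x100), log10; sequences with >100 DNA reads. FACS-Seq: lentiviral library sorted into 6 bins after 48 h ligand, log-normal fit mean of mCherry/BFP scaled to controls. Printed sequences are partial switch sequences.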

(6R,S)-folinic acid [2] = variants of: B1; assay: normalized RNA/DNA level without ligand (relative to sTRSVctl = 100) (log10 (% of sTRSVctl)); HEK293T overexpressing SLC46A1; higher = less ribozyme self-cleavage, higher mRNA level; conditions: without (6R,S)-folinic acid; ligand present: no
Protocol: as §1

(6R,S)-folinic acid [3] = variants of: B1; assay: FACS-Seq fitted mean relative fluorescence mCherry/BFP with ligand (log10 relative fluorescence); HEK293T overexpressing SLC46A1; ligand concentration (+) FACS-Seq: 6 mM; higher = higher reporter protein expression; conditions: with (6R,S)-folinic acid; ligand present: yes
Protocol: as §1

(6R,S)-folinic acid [4] = variants of: B1; assay: normalized RNA/DNA level with ligand (relative to sTRSVctl = 100) (log10 (% of sTRSVctl)); HEK293T overexpressing SLC46A1; ligand concentration (+) RNA-Seq: 6 mM; higher = less ribozyme self-cleavage, higher mRNA level; conditions: with (6R,S)-folinic acid; ligand present: yes
Protocol: as §1

Variant | FACS-Seq fitted mean (log10) ((6R,S)-folinic acid [1]) | normalized RNA/DNA level without ligand (log10) ((6R,S)-folinic acid [2]) | FACS-Seq fitted mean (log10) ((6R,S)-folinic acid [3]) | normalized RNA/DNA level with ligand (log10) ((6R,S)-folinic acid [4])
AAAGGG | 0.172 ± 0.033 | 1.671 ± 0.016 | 0.631 ± 0.087 | 1.97 ± 0.049
AAAGGA | 0.158 ± 0.1 | 1.909 ± 0.007 | 0.355 ± 0.16 | 2 ± 0.027
AAAGGC | 0.486 ± 0.051 | 2.041 ± 0.0056 | 0.631 ± 0.18 | 2.04 ± 0.034
AAAGCA | 0.3689 ± 0.0015 | 1.975 ± 0.0052 | 0.575 ± 0.35 | 1.98 ± 0.044
AAAGCG | 0.0389 ± 0.01 | 1.743 ± 0.0089 | 0.352 ± 0.079 | 1.989 ± 0.013
UAAUUG | 0.377 ± 0.016 | 1.794 ± 0.0071 | 0.456 ± 0.012 | 1.972 ± 0.017
GAACCU | -0.507 ± 0.14 | 2.02 ± 0.0076 | -0.0321 ± 0.22 | 2.02 ± 0.04
AAAUCC | 0.504 ± 0.068 | 2.044 ± 0.013 | 0.398 ± 0.23 | 2.03 ± 0.044
AAAUCG | 0.416 ± 0.0066 | 1.955 ± 0.0094 | 0.42 ± 0.12 | 2.03 ± 0.036
GACAAA | 0.367 ± 0.089 | 1.974 ± 0.0039 | 0.306 ± 0.081 | 2.007 ± 0.019
GACAAC | 0.378 ± 0.076 | 1.987 ± 0.0049 | 0.472 ± 0.21 | 2.004 ± 0.013
CAAAAU | -0.131 ± 0.018 | 1.955 ± 0.0057 | -0.505 ± 0.1 | 1.98 ± 0.032
CAAAAC | 0.474 ± 0.076 | 1.9999 ± 0.0015 | 0.589 ± 0.49 | 1.99 ± 0.055
GAAUAA | -0.184 ± 0.011 | 1.976 ± 0.0046 | -0.234 ± 0.28 | 1.989 ± 0.016
GAAUAC | 0.463 ± 0.14 | 1.974 ± 0.0095 | 0.313 ± 0.25 | 2 ± 0.053
GACACA | 0.265 ± 0.028 | 1.99 ± 0.02 | 0.656 ± 0.046 | 2 ± 0.037
GAAUGA | 0.25 ± 0.057 | 1.992 ± 0.0057 | 0.299 ± 0.2 | 2.02 ± 0.022
GAAUGG | 0.297 ± 0.079 | 1.89 ± 0.013 | 0.386 ± 0.37 | 2.03 ± 0.019
